The source of these data is PMC7526519 (2020).

By Kd is commonly meant a measure of binding affinity in units of concentration. Read a high Kd as a looser complex.

The target in experiment [1] is SARS-CoV receptor binding domain (RBD), His-tagged (SARS-CoV, UniProt P59594 306-527). Put plainly: SPR. In general terms: In SPR one partner is held on a chip, and binding of the other changes the refractive index at the surface.
Experiment [2] concerns the target SARS-CoV-2 receptor binding domain (RBD), His-tagged (SARS-CoV-2, UniProt P0DTC2 319-541). In words: SPR.

B1: bovine ACE2 ectodomain fused with mouse Fc (Fc fusion)
chain: QSTTEEQAKTFLEKFNHEAEDLSYQSSLASWNYNTNITDENVQKMNEARAKWSAFYEEQSRMAKTYSLEEIQNLTLKRQLKALQHSGTSALSAEKSKRLNTILNKMSTIYSTGKVLDPNTQECLALEPGLDDIMENSRDYNRRLWAWEGWRAEVGKQLRPLYEEYVVLENEMARANNYEDYGDYWRGDYEVTGAGDYDYSRDQLMKDVERTFAEIKPLYEQLHAYVRAKLMHTYPSYISPTGCLPAHLLGDMWGRFWTNLYSLTVPFEHKPSIDVTEKMENQSWDAERIFKEAEKFFVSISLPYMTQGFWDNSMLTEPGDGRKVVCHPTAWDLGKGDFRIKMCTKVTMDDFLTAHHEMGHIQYDMAYAAQPYLLRNGANEGFHEAVGEIMSLSAATPHYLKALGLLAPDFHEDNETEINFLLKQALTIVGTLPFTYMLEKWRWMVFKGEIPKQQWMEKWWEMKREIVGVVEPLPHDETYCDPACLFHVAEDYSFIRYYTRTIYQFQFHEALCKTAKHEGALFKCDISNSTEAGQRLLQMLRLGKSEPWTLALENIVGIKTMDVKPLLNYFEPLFTWLKEQNRNSFVGWSTEWTPYSDQSIKVRISLKSALGENAYEWNDNEMYLFQSSVAYAMRKYFSEARNETVLFGEDNVWVSDKKPRISFKFFVTSPNNVSDIIPRTEVENAIRLSRDRINDVFQLDDNSLEFLGIQPTLGPPYEPPVT
With B1, the Kd in experiment [1] worked out at 89.8 nM; in experiment [2], 73.7 nM.

B2: monkey ACE2 ectodomain fused with mouse Fc (Fc fusion)
chain: QSTIEEQAKTFLDKFNHEAEDLFYQSSLASWNYNTNITEENVQNMNNAGEKWSAFLKEQSTLAQMYPLQEIQNLTVKLQLQALQQNGSSVLSEDKSKRLNTILNTMSTIYSTGKVCNPNNPQECLLLDPGLNEIMEKSLDYNERLWAWEGWRSEVGKQLRPLYEEYVVLKNEMARANHYKDYGDYWRGNYEVNGVDGYDYNRDQLIEDVERTFEEIKPLYEHLHAYVRAKLMNAYPSYISPTGCLPAHLLGDMWGRFWTNLYSLTVPFGQKPNIDVTDAMVNQAWNAQRIFKEAEKFFVSVGLPNMTQGFWENSMLTDPGNVQKVVCHPTAWDLGKGDFRIIMCTKVTMDDFLTAHHEMGHIQYDMAYAAQPFLLRNGANEGFHEAVGEIMSLSAATPKHLKSIGLLSPDFQEDNETEINFLLKQALTIVGTLPFTYMLEKWRWMVFKGEIPKDQWMKKWWEMKREIVGVVEPVPHDETYCDPASLFHVSNDYSFIRYYTRTLYQFQFQEALCQAAKHEGPLHKCDISNSTEAGQKLLNMLKLGKSEPWTLALENVVGAKNMNVRPLLNYFEPLFTWLKDQNKNSFVGWSTDWSPYADQSIKVRISLKSALGDKAYEWNDNEMYLFRSSVAYAMRTYFLEIKHQTILFGEEDVRVADLKPRISFNFYVTAPKNVSDIIPRTEVEEAIRISRSRINDAFRLNDNSLEFLGIQTTLAPPYQSPVT
B2: the Kd stood at 69.1 nM in experiment [1] and 21.7 nM in experiment [2].

B3: raccoon dog ACE2 ectodomain fused with mouse Fc (Fc fusion)
chain: QSTEDLVNTFLEKFNYEAEELSYQSSLASWNYNTNITDENLQKMNNAGAKWSAFYEEQSKLAKTYPLEEIQDSTVKRQLRALQHSGSSVLSADKNQRLNTILNSMSTIYSTGKACNPSNPQECLLLEPGLDDIMENSKDYNERLWAWEGWRSEVGKQLRPLYEEYVALKNEMARANNYEDYGDYWRGDYEEEWENGYNYSRNQLIDDVEHTFTQIMPLYQHLHAYVRTKLMDTYPSYISPTGCLPAHLLGDMWGRFWTNLYPLTVPFGQKPNIDVTNAMVNQSWDARKIFKEAEKFFVSVGLPNMTQGFWENSMLTEPSDSWKVVCHPTAWDLGRGDFRIKMCTKVTMDDFLTAHHEMGHIQYDMAYAAQPFLLRNGANEGFHEAVGEIMSLSAATPNHLKNIGLLPPSFFEDSETEINFLLKQALTIVGTLPFTYMLEKWRWMVFKGEIPKDQWMKTWWEMKRNIVGVVEPVPHDETYCDPASLFHVANDYSFIRYYTRTIYQFQFQEALCQIAKHEGPLHKCDISNSSEAGQKLLEMLKLGKSKPWTYALEIVVGAKNMDVRPLLNYFEPLFTWLKEQNRNSFVGWNTDWSPYADQSIKVRISLKSALGEKAYEWNNNEMYLFRSSIAYAMRQYFSEVKNQTIPFVEDNVWVSDLKPRISFNFFVTSPGNVSDIIPRTEVEEAIRMYRSRINDVFRLDDNSLEFLGIQPTLGPPYEPPVT
On to B3, for which the Kd in experiment [1] came to 179 nM; in experiment [2], 96.4 nM.

B4: rabbit ACE2 ectodomain fused with mouse Fc (Fc fusion)
chain: QSTIEELAKTFLEKFNQEAEDLSYQSALASWDYNTNITEENVQKMNDAEAKWSAFYEEQSKLAKTYPSQEVQNLTVKRQLQALQQSGSSALSADKSKQLNTILSTMSTIYSTGKVCNQSNPQECFLLEPGLDEIMAKSTDYNERLWAWEGWRSVVGKQLRPLYEEYVVLKNEMARANNYEDYGDYWRADYEAEGADGYDYSRSQLIDDVERTFSEIKPLYEQLHAFVRTKLMDAYPSRISPTGCLPAHLLGDMWGRFWTNLYSLTVPFGQKPNIDVTDTMVNQGWDAERIFKEAEKFFVSVGLPSMTQGFWENSMLTEPGDGRKVVCHPTAWDLGKGDFRIKMCTKVTMDNFLTAHHEMGHIQYDMAYATQPFLLRNGANEGFHEAVGEIMSLSAATPEHLKSIGLLPYDFHEDNETEINFLLKQALTIVGTLPFTYMLEKWRWMVFKGEIPKEQWMQKWWEMKREIVGVVEPMPHDETYCDPAALFHVANDYSFIRYYTRTIYQFQFQEALCQAAQHEGPLHKCDISNSTEAGQKLLNMLRLGRSEPWTLALENVVGAKNMDVRPLLNYFEPLFTWLKEQNRNSFVGWSTEWTPYADQSIKVRISLKTALGDQAYEWNDSEMYLFRSSVAYAMRKYFSEVKNQTILFGEEDVRVSDLKPRISFNFFVTAPNNVNDIIPRNEVEEAISMSRSRINDIFRLDDNSLEFVGIQPTLEPPYESPVP
Consider B4, for which the Kd stood at 74.8 nM in experiment [1] and 76.2 nM in experiment [2].

B5: pig ACE2 ectodomain fused with mouse Fc (Fc fusion)
chain: QSTTEELAKTFLEKFNLEAEDLAYQSSLASWNYNTNITDENIQKMNDARAKWSAFYEEQSRIAKTYPLDEIQTLILKRQLQALQQSGTSGLSADKSKRLNTILNTMSTIYSSGKVLDPNNPQECLVLEPGLDEIMENSKDYSRRLWAWESWRAEVGKQLRPLYEEYVVLENEMARANNYEDYGDYWRGDYEVTGTGDYDYSRNQLMEDVERTFAEIKPLYEHLHAYVRAKLMDAYPSRISPTGCLPAHLLGDMWGRFWTNLYPLTVPFGEKPSIDVTEAMVNQSWDAIRIFEEAEKFFVSIGLPNMTQGFWNNSMLTEPGDGRKVVCHPTAWDLGKGDFRIKMCTKVTMDDFLTAHHEMGHIQYDMAYAIQPYLLRNGANEGFHEAVGEIMSLSAATPHYLKALGLLPPDFYEDSETEINFLLKQALTIVGTLPFTYMLEKWRWMVFKGEIPKEQWMQKWWEMKREIVGVVEPLPHDETYCDPACLFHVAEDYSFIRYYTRTIYQFQFHEALCRTAKHEGPLYKCDISNSTEAGQKLLQMLSLGKSEPWTLALENIVGVKTMDVKPLLSYFEPLLTWLKAQNGNSSVGWNTDWTPYADQSIKVRISLKSALGKEAYEWNDNEMYLFRSSIAYAMRNYFSSAKNETIPFGAEDVWVSDLKPRISFNFFVTSPANMSDIIPRSDVEKAISMSRSRINDAFRLDDNTLEFLGIQPTLGPPDEPPVT
In the case of B5, the results for the Kd in experiment [1] and in experiment [2] were 35.8 nM and 47.6 nM, respectively.
